Data reported in patent US20110009597A1, “RECOMBINANT GANODERMA LUCIDIUM IMMUNOMODULATORY PROTEIN (rLZ-8) AND USES THEREOF” (priority 2008, published 2011).

Experiments:
[1] = system: Human Promyelocytic Leukemia NB4 Cells; assay: Killing effect of rLZ-8 on NB4 cells (MTT, OD570nm); format: cell-based
Method: After filtration and degerming, we prepared 8 concentrations using IMDM culture medium which are respectively 0.78 μg·ml^−1, 1.56 μg·ml^−1, 3.125 μg·ml^−1, 6.25 μg·ml^−1, 12.5 μg·ml^−1, 25 μg·ml^−1, 50 μg·ml^−1, 100 μg·ml^−1.
On 96-orifice culture medium plate, the pilot orifice plus NB4 tumor cells 0.1 ml and rLZ-8 0.1 ml, rLZ-8 concentrates from low to high; negative control group plus NB4 tumor cells and culture medium of 0.1 ml respectively; positive drug control group arsenic trioxide As2O3; make six-aperture multipunches for each group. Placing in 37° C., 5% CO2 incubator 48 h, adding MTT15 μl (5 mg ml^−1) prior to the termination of 4 h, after the termination of cell culture by adding 100 μl 0.1 mol L^−1 hydrochloric acid isopropyl alcohol, testing on the enzyme-linked immunosorbent OD570nm values.

[2] = system: S180 cells; assay: Mouse transplanted S180 subcutaneous tumor inhibition; format: in vivo, Mice; conditions: 10 days
Method: Mice, 18-22 g, males and females were equally divided, provided by Jilin University Laboratory Animal Center; Mice Ehrlich ascites cells strain, provided by our laboratory S180; Cyclophosphamide (CTX), offered by Jiangsu Hengrui Medicine Co., Ltd., lot number: 06101921. S180 ascites tumors and solid tumors in experiment group were divided into normal control group, negative control group, positive control group, rLZ-8 low-dose treatment group (0.25 mg·kg^−1), rLZ-8 medium-dose treatment group (0.5 mg·kg^−1), rLZ-8 high-dose treatment group (1 mg·kg^−1). For each group 10 mice.
Select well-growing S180 cells, dilute appropriately with sterile saline into a tumor cell suspension, cell counts for 10^7·L^−1, under the right armpit of each mouse inoculated subcutaneously 0.2 ml (except for the normal control group). Treatment after 24 h of vaccination. Normal control group and negative control group were given saline 0.2 ml·each^−l·d^−1, intraperitoneal injection; positive control group were given cyclophosphamide 20 mg·kg^−1, intraperitoneal injection. rLZ-8 treatment groups were given doses of tail venous injection respectively, 0.2 ml·each^−1·d^−1, in 10 consecutive days. Draw blood from orbital venous plexus 10 days before and after medication respectively, sent to Jilin University No. 1 Hospital clinical laboratory to test and analyze the number of WBC. Kill all mice the next day of drug withdrawal at cervical dislocation, dissect anatomically and take out the tumors, weigh tumors, calculate the inhibition rate using the following equation:
Inhibition rate (%)=(average tumore weight of the control group−average tumore weight of the experiment group)/average tumor weight of the control group×100%

[3] = system: mouse peritoneal S180 tumor cells; assay: S180 ascites tumor inhibition experiment; format: in vivo, Mice; conditions: rLZ-8 0.25-1 mg·kg^−1 tail venous injection, 10 days
Method: Treatment after 24 h of vaccination. […] Daily weighing, observe the weight changes of mice, drawing weight growth curves.

[4] = system: Mouse hepatoma cell strain H22; assay: H22 subcutaneous tumor inhibition experiment; format: in vivo, Mice; conditions: 10 days
Method: Mice, weight 18-22g, males and females were divided equally, from Jilin University Laboratory Animal Center. Mouse hepatoma cell strain H22, offered by our laboratory. Cyclophosphamide (CTX), offered by Jiangsu Hengrui Medicine Co., Ltd., lot number: 06101921.
H22 hepatoma cells experiment group were divided into normal control group, negative control group, positive control group, rLZ-8 low-dose treatment group (0.25 mg·kg^−1), rLZ-8 medium-dose treatment group (0.5 mg·kg^−1), rLZ-8 high-dose treatment group (1 mg·kg^−1). For each group 10 mice.
H22 subcutaneous tumor tumor inhibition experiment methods: Select well-growing 1-122 cells, dilute appropriately with sterile saline into a tumor cell suspension, cell counts for 10^7·L^−1, under the right armpit of each mouse inoculated subcutaneously 0.2 ml (except for the normal control group). Treatment after 24 h of vaccination. Normal control group and negative control group were given saline 0.2 ml·each^−1·d^−1, intraperitoneal injection; positive control group were given cyclophosphamide 20 mg·kg^−1, 0.2 ml·each^−1·d^−1, intraperitoneal injection. rLZ-8 treatment groups were given doses of tail venous injection respectively, 0.2 ml·each^−1·d^−1, in 10 consecutive days. Draw blood from orbital venous plexus 10 days before and after medication respectively, sent to Jilin University No. 1 Hospital clinical laboratory to test and analyze the number of WBC. Kill all the mice the next day of drug withdrawal at cervical dislocation, dissected anatomically and took out the tumors, weigh tumors, calculated the inhibition rate using the following equation:
Inhibition rate (%)=(average tumore weight of the control group−average tumor weight of the experiment group)/average tumor weight of the control group×100%

[5] = system: WBC; assay: Treatment of radiation leucopenia model of mice, WBC; format: in vivo; design: unit not given here; conditions: 7.5 Gy γ-ray
Method: rLZ-8 preparation of sterile saline. Divide them into 5 ∞g·kg^−1, 2.5 μg·kg^−1, 1.25 μg·kg^−1, 0.62 μg·kg^−1 dose groups. 0.2 ml/vial.
Genlei™ Scimax™ [Recombinant human granulocyte colony-stimulating factor injection (rhG-CSF)], production lot: 20060403; 150m/vial is prepared with sterile normal saline into the preparation of 3.2 μg·kg^−1, 0.2 ml/vial.
The mice were irradiated by 7.5 Gy γ-ray (180 mV, 15 mA) and then divided into seven groups (n=10): (A) negative control; (B) 5 μg·kg−1 dose; (C) 2.5 μg·kg−1 dose; (D) 1.25 μg·kg−1 dose; (E) 0.62 μg·kg−1 dose; (F) positive control (Genlei™ Scimax™); (G) model group. Together with modeling, mice in each group were administered with Genlei™ Scimax™ and rLZ-8 for 9 days, drew blood from tail, tested the number of WBC, weight spleen, calculated index of spleen.

[6] = rLZ-8 0.25 mg·kg^−1 tail venous injection
[7] = rLZ-8 0.5 mg·kg^−1 tail venous injection
[8] = rLZ-8 1 mg·kg^−1 tail venous injection

B1: rLZ-8: Recombinant Ganoderma Lucidum Immune Regulatory Protein expressed in Pichia pastoris (protein, UniProt P14945 2-111, looked up)
Immunomodulatory protein Ling …: SDTALIFRLAWDVKKLSFDYTPNWGRGNPNNFIDTVTFPKVLTDKAYTYRVAVSGRNLGVKPSYAVESDGSQKVNFLEYNSGYGIADTNTIQVFVVDPDTNNDFIIAQWN
- lethal effect in vitro on NB4 tumor cells (in words) ([1]; 0.78-100 μg·ml^−1): strong lethal effect
- Growth inhibition rate (%) ([1]; rLZ-8 0.78 μg ml^−1, 48 h): 39%
- OD570 nm ([1]; rLZ-8 0.78 μg ml^−1, 48 h): 0.71 ± 0.03
- Growth inhibition rate (%) ([1]; rLZ-8 1.56 μg ml^−1, 48 h): 44%
- OD570 nm ([1]; rLZ-8 1.56 μg ml^−1, 48 h): 0.65 ± 0.05
- Growth inhibition rate (%) ([1]; rLZ-8 3.125 μg ml^−1, 48 h): 54%
- OD570 nm ([1]; rLZ-8 3.125 μg ml^−1, 48 h): 0.53 ± 0.04
- Growth inhibition rate (%) ([1]; rLZ-8 6.25 μg ml^−1, 48 h): 61%
- OD570 nm ([1]; rLZ-8 6.25 μg ml^−1, 48 h): 0.45 ± 0.02
- Growth inhibition rate (%) ([1]; rLZ-8 12.5 μg ml^−1, 48 h): 74%
- OD570 nm ([1]; rLZ-8 12.5 μg ml^−1, 48 h): 0.30 ± 0.04
- Growth inhibition rate (%) ([1]; rLZ-8 25 μg ml^−1, 48 h): 81%
- OD570 nm ([1]; rLZ-8 25 μg ml^−1, 48 h): 0.22 ± 0.01
- Growth inhibition rate (%) ([1]; rLZ-8 50 μg ml^−1, 48 h): 91%
- OD570 nm ([1]; rLZ-8 50 μg ml^−1, 48 h): 0.11 ± 0.01
- Growth inhibition rate (%) ([1]; rLZ-8 100 μg ml^−1, 48 h): 93%
- OD570 nm ([1]; rLZ-8 100 μg ml^−1, 48 h): 0.08 ± 0.01
- Inhibition rate (%) [2, 6]: 16.8%
- Tumor weight [2, 6]: 0.84 ± 0.03 g
- Inhibition rate (%) [2, 7]: 25.7%
- Tumor weight [2, 7]: 0.75 ± 0.02 g
- Inhibition rate (%) [2, 8]: 45.5%
- Tumor weight [2, 8]: 0.55 ± 0.03 g
- growth of peritoneal S180 tumor cells (body weight curve) [3]: inhibited mouse peritoneal S180 tumor cells growth
- Inhibition rate (%) [4, 6]: 16.7%
- Tumor weight [4, 6]: 1.00 ± 0.03 g
- Inhibition rate (%) [4, 7]: 30.0%
- Tumor weight [4, 7]: 0.84 ± 0.02 g
- Inhibition rate (%) [4, 8]: 42.5%
- Tumor weight [4, 8]: 0.69 ± 0.03 g
- WBC, 5th day ([5]; rLZ-8 0.62 μg·kg^−1): 0.73 ± 0.43
- WBC, 7th day ([5]; rLZ-8 0.62 μg·kg^−1): 0.26 ± 0.43
- WBC, 9th day ([5]; rLZ-8 0.62 μg·kg^−1): 0.64 ± 0.01
- WBC, 5th day ([5]; rLZ-8 1.25 μg·kg^−1): 0.82 ± 0.45
- WBC, 7th day ([5]; rLZ-8 1.25 μg·kg^−1): 0.65 ± 0.45
- WBC, 9th day ([5]; rLZ-8 1.25 μg·kg^−1): 0.70 ± 0.12
- WBC, 5th day ([5]; rLZ-8 2.50 μg·kg^−1): 0.69 ± 0.54
- WBC, 7th day ([5]; rLZ-8 2.50 μg·kg^−1): 0.56 ± 0.54
- WBC, 9th day ([5]; rLZ-8 2.50 μg·kg^−1): 0.54 ± 0.13
- WBC, 5th day ([5]; rLZ-8 5 μg·kg^−1): 0.84 ± 0.32
- WBC, 7th day ([5]; rLZ-8 5 μg·kg^−1): 0.31 ± 0.32
- WBC, 9th day ([5]; rLZ-8 5 μg·kg^−1): 0.90 ± 0.14
